Measurements taken from patent US20190338048A1.
Like-named read-outs stand apart in the source and are kept apart here.

Tests used:
[1] = biological target: Pertuzumab kappa light chain S121K_S131K_L135K; assay: LCCA, SPR tag read-out
[2] = biological target: CAT-2200 lambda light chain K129T_V133D; assay: LCCA, SPR
[3] = biological target: Pertuzumab kappa light chain S131K_V133G_S176R; assay: LCCA, SPR
[4] = biological target: Pertuzumab kappa light chain S131R_V133G_S176R; assay: LCCA, SPR
[5] = biological target: Pertuzumab kappa light chain S131K_V133G_S176R; assay: LCCA, SPR; remark: listed apart in the source
[6] = biological target: Pertuzumab kappa light chain S131R_V133G_S176R; assay: LCCA, SPR; remark: listed apart in the source
[7] = biological target: CAT-2200 lambda light chain K129T_V133D; assay: LCCA, SPR; remark: listed apart in the source
[8] = biological target: CAT-2200 lambda light chain K129T_T131D_V133D; assay: LCCA, SPR tag read-out
[9] = biological target: CAT-2200 lambda light chain K129T_V133D_Y178T; assay: LCCA, SPR tag read-out
[10] = biological target: CAT-2200 lambda light chain V133D_Y178T; assay: LCCA, SPR tag read-out
[11] = biological target: Pertuzumab kappa light chain S131K_V133G_S176R; assay: LCCA, SPR tag read-out
[12] = biological target: Pertuzumab kappa light chain S131R_V133G_L135W_S176R; assay: LCCA, SPR tag read-out
[13] = biological target: Pertuzumab kappa light chain S131R_V133G_S176R; assay: LCCA, SPR tag read-out
[14] = biological target: Pertuzumab kappa light chain S131K_V133G_S176R; assay: LCCA, SPR tag read-out; remark: listed apart in the source
[15] = biological target: Pertuzumab kappa light chain S131R_V133G_L135W_S176R; assay: LCCA, SPR tag read-out; remark: listed apart in the source
[16] = biological target: Pertuzumab kappa light chain S131R_V133G_L135W_S176R; assay: LCCA, SPR tag read-out; remark: listed apart in the source
[17] = biological target: CAT-2200 lambda light chain S122D_K129T_V133D_Y178T; assay: LCCA, SPR tag read-out
[18] = biological target: CAT-2200 lambda light chain S122D_K129T_V133D; assay: LCCA, SPR tag read-out
[19] = biological target: CAT-2200 lambda light chain S122D_V133D_Y178T; assay: LCCA, SPR tag read-out
[20] = biological target: Pertuzumab kappa light chain S121K_S131R_V133G_S176R; assay: LCCA, SPR tag read-out
[21] = biological target: Pertuzumab kappa light chain S121K_S131R_V133G_S176R; assay: LCCA, SPR tag read-out; remark: listed apart in the source
[22] = biological target: Pertuzumab kappa light chain S121K_S131R_V133G_S176R; assay: LCCA, SPR tag read-out; remark: listed apart in the source

**Q.** “Pertuzumab Fab heavy chain L124E_A139I_K145T_V190I_K228D” was tested. Which H2L2:H2L1 median scalar value [1] did it give?
**A.** Its H2L2:H2L1 median scalar value is 0.25 ln(ratio).

**Q.** What does the source list for “Pertuzumab Fab heavy chain L124E_K145T_Q179E”?
**A.** H2L2:H2L1 normalized median ratio [2]: 8%; H2L2:H2L1 normalized median scalar value ln(r1/f1) [3]: 2.38; H2L2:H2L1 normalized median scalar value ln(r1/f1) [4]: 3.12; H2L2:H2L1 normalized median scalar value ln(r1/f1) [5]: 2.18; H2L2:H2L1 normalized median scalar value ln(r1/f1) [6]: 2.72; H2L2:H2L1 normalized median ratio [7]: 4%; H2L2:H2L1 normalized median ratio [8]: 4%; H2L2:H2L1 normalized median ratio [9]: 16%; H2L2:H2L1 normalized median ratio [10]: 16%; H2L2:H2L1 median scalar value [11]: 3.26 ln(ratio); H2L2:H2L1 median scalar value [12]: 1.71 ln(ratio); H2L2:H2L1 median scalar value [13]: 4.11 ln(ratio); H2L2:H2L1 median scalar value [14]: 3.71 ln(ratio); H2L2:H2L1 median scalar value [15]: 2.31 ln(ratio); H2L2:H2L1 median scalar value [16]: 1.7 ln(ratio)

**Q.** Which results are given for “Pertuzumab Fab heavy chain L124E_K145T_Q179E_K228D”?
**A.** H2L2:H2L1 normalized median ratio [17]: 8%; H2L2:H2L1 normalized median ratio [18]: 5%; H2L2:H2L1 normalized median ratio [19]: 14%; H2L2:H2L1 median scalar value [20]: 1.9 ln(ratio); H2L2:H2L1 normalized median ratio [20]: 86%; H2L2:H2L1 median scalar value [21]: 3.08 ln(ratio); H2L2:H2L1 normalized median ratio [21]: 95%; H2L2:H2L1 median scalar value [22]: 2.42 ln(ratio); H2L2:H2L1 normalized median ratio [22]: 92%
